Measurements published in patent publication US20110230406A1 (ADVANCED TECHNOLOGIES AND REGENERATIVE MEDICINE, published 2011).
No end group written: not given here.

B1: phage displaying the peptide of SEQ ID NO: 18 on the pIX minor coat protein (peptide)
peptide: AGRLCHATVDGVAVGCLT
modifications: cysteine pairing not given here; also: displayed on phage pIX minor coat protein
notes: not shown: pIX minor coat protein of the phage that carries the peptide
B2: phage displaying the peptide of SEQ ID NO: 6 on the pIX minor coat protein (peptide)
peptide: AGRDSFNLLTSSPLPST
modifications: also: displayed on phage pIX minor coat protein, junction not given here
notes: as for B1
B3: phage displaying the peptide of SEQ ID NO: 13 on the pIX minor coat protein (peptide)
peptide: AGSTCIPSMTPLCPS
modifications: cysteine pairing not given here; also: displayed on phage pIX minor coat protein
notes: as for B1
B4: phage displaying the peptide of SEQ ID NO: 22 on the pIX minor coat protein (peptide)
peptide: AGRSCYREPSTMLYACTA
modifications: cysteine pairing not given here; also: displayed on phage pIX minor coat protein
notes: as for B1
B5: phage displaying the peptide of SEQ ID NO: 10 on the pIX minor coat protein (peptide)
peptide: AGLQCSPPLPLYCEP
modifications: cysteine pairing not given here; also: displayed on phage pIX minor coat protein
notes: as for B1
B6: phage displaying the peptide of SEQ ID NO: 21 on the pIX minor coat protein (peptide)
peptide: AGIRCPVDAIGLTANCSY
modifications: cysteine pairing not given here; also: displayed on phage pIX minor coat protein
notes: as for B1
B7: phage displaying the peptide of SEQ ID NO: 16 on the pIX minor coat protein (peptide)
peptide: AGPDCRLSPLQPAVCVW
modifications: cysteine pairing not given here; also: displayed on phage pIX minor coat protein
notes: as for B1
B8: phage displaying the peptide of SEQ ID NO: 2 on the pIX minor coat protein (peptide)
peptide: AGPPGPYIAASAFLALK
modifications: also: displayed on phage pIX minor coat protein, junction not given here
notes: as for B1
B9: phage displaying the peptide of SEQ ID NO: 1 on the pIX minor coat protein (peptide)
peptide: AGLPLQSMSRLSYDSLS
modifications: also: displayed on phage pIX minor coat protein, junction not given here
notes: as for B1
B10: phage displaying the peptide of SEQ ID NO: 12 on the pIX minor coat protein (peptide)
peptide: AGASCSPGLHPLCPG
modifications: cysteine pairing not given here; also: displayed on phage pIX minor coat protein
notes: as for B1
B11: phage displaying the peptide of SEQ ID NO: 9 on the pIX minor coat protein (peptide)
peptide: AGSPCSPGQLPLCPA
modifications: cysteine pairing not given here; also: displayed on phage pIX minor coat protein
notes: as for B1
B12: phage displaying the peptide of SEQ ID NO: 11 on the pIX minor coat protein (peptide)
peptide: AGPRCPPMHFSVCLS
modifications: cysteine pairing not given here; also: displayed on phage pIX minor coat protein
notes: as for B1
B13: phage displaying the peptide of SEQ ID NO: 20 on the pIX minor coat protein (peptide)
peptide: AGTLCGVDDYTGLTGCLA
modifications: cysteine pairing not given here; also: displayed on phage pIX minor coat protein
notes: as for B1
B14: phage displaying the peptide of SEQ ID NO: 14 on the pIX minor coat protein (peptide)
peptide: AGRECLPQFGLPLCPD
modifications: cysteine pairing not given here; also: displayed on phage pIX minor coat protein
notes: as for B1
B15: phage displaying the peptide of SEQ ID NO: 19 on the pIX minor coat protein (peptide)
peptide: AGTVCPPDLTGLTAACYY
modifications: cysteine pairing not given here; also: displayed on phage pIX minor coat protein
notes: as for B1
B16: phage displaying the peptide of SEQ ID NO: 8 on the pIX minor coat protein (peptide)
peptide: AGSWCTHPAIGCLS
modifications: cysteine pairing not given here; also: displayed on phage pIX minor coat protein
notes: as for B1
B17: phage displaying the peptide of SEQ ID NO: 5 on the pIX minor coat protein (peptide)
peptide: AGYRRPIQPGPEAVSLL
modifications: also: displayed on phage pIX minor coat protein, junction not given here
notes: as for B1
B18: phage displaying the peptide of SEQ ID NO: 17 on the pIX minor coat protein (peptide)
peptide: AGAHCLRDHMGLTSCIP
modifications: cysteine pairing not given here; also: displayed on phage pIX minor coat protein
notes: as for B1
B19: phage displaying the peptide of SEQ ID NO: 15 on the pIX minor coat protein (peptide)
peptide: AGSVCLAQYSATPLCPH
modifications: cysteine pairing not given here; also: displayed on phage pIX minor coat protein
notes: as for B1
B20: phage displaying the peptide of SEQ ID NO: 7 on the pIX minor coat protein (peptide)
peptide: AGYRCSELPLYCST
modifications: cysteine pairing not given here; also: displayed on phage pIX minor coat protein
notes: as for B1

Experiments:
[1] = target: T1, biotinylated BMP-2 (R&D Systems, Item number 355-BM/CF) (human, UniProt P12643 283-396, biotinylated (sites not given)); assay: mutant phage ELISA titration on BMP-2 by the procedure of Example 3
T1 construct: Bought protein, biotinylated, captured on streptavidin plates (phage ELISA) or streptavidin donor beads (ALPHA); also called bone morphogenic protein-2
T1 sequence (P12643 283-396 limits assumed): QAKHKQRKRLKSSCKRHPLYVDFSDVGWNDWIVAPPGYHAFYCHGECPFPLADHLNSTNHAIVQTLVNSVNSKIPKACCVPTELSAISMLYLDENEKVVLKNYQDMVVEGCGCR
Experimental: (§1) To all other wells, 100 microliters of PBS was introduced. The plates were again washed 3 times with TBST using the plate washer. The wells were then blocked with 250 microliters of a 3% dehydrated milk suspension in TBST and allowed to sit at room temperature for a minimum of 1 hour. Using phage concentrations determined by the phage titrations, dilutions of the phage stock solutions were performed in a separate 96-well plate to result in phage concentrations of 10¹⁰, 10⁹, 10⁸, 10⁷, 10⁶ and 10⁵ phage/well. After blocking, the ELISA plate was washed 3 times with TBST and 100 microliters of the phage dilutions were introduced to the respective ELISA plates and allowed to sit at room temperature for a minimum of 1 hour. The ELISA plate was again washed 3 times with TBST using the plate washer and 100 microliters of an HRP-conjugated Anti-M13 Phage Mab (1:5000 dilution in PBS) was introduced to each well. The plates were allowed to sit at room temperature for 1 hour after which time the plates were washed 3 times with TBST. Next, a POD HRP-substrate was introduced to each well. The luminescence was read using a luminometer set with a gain of 150.
The respective custom oligonucleotide was obtained from Integrated DNA Technologies. The oligonucletides were inserted into the pIX gene using standard protocols. First, the oligonucletides were phosphorylated using T4 polynucleotide kinase. Next, the phosphorylated oligonucletides were annealed to the ssDNA template. Using the Kunkel method, the annealed DNA was ligated using T4 DNA ligase and T7 DNA polymerase. The resultant DNA was isolated using isopropanol precipitation and a gel was run to confirm the reaction. Lastly, electro-competent E. coli cells were transformed with the purified DNA and were plated out onto 2xYT/Tet/Xgal agar plates and allowed to grow overnight to isolate single colonies. An aliquot of the transformed cells was allowed to grow overnight at 37° C. while shaking in 50 mL 2xYT/tet media. The phage were then PEG precipitated following the procedure in Example 1. A phage titration was performed to determine the concentration of phage for the ELISA assay as described in Example 2. ELISA assays were performed following the procedure in Example 3.

[2] = target: T1, biotinylated BMP-2 (R&D Systems, Item …); assay: phage ELISA, biotinylated BMP-2 captured on streptavidin-coated wells, HRP anti-M13 antibody, luminescence
human serum albumin = target: T2, human serum albumin (human, UniProt P02768 25-609); assay: phage ELISA, HSA-coated wells, HRP anti-M13 antibody, luminescence
T2 construct: Cross-reactivity control coated at 5 micrograms/mL; also called HSA
Experimental: as §1, with “96-well black ELISA plates were coated with streptavidin (Rows A through D), hIgG (Rows E and F) and human serum albumin (Rows G and H), at a concentration of 5 micrograms/mL in PBS. Plates were incubated overnight at 4° C. Plates were washed 3 times with TBST using a plate washer. To the streptavidin-coated wells in rows C and D, 100 microliters of a 4 micrograms/mL solution of biotinylated-BMP-2 (R&D Systems, Minneapolis, Minn., Item number 355-BM/CF), was introduced and allowed to sit at room temperature for 30 minutes. To” for “To”

[3] = target: T1, biotinylated BMP-2 (R&D Systems, Item …); assay: phage ELISA titration, biotinylated BMP-2 captured on streptavidin-coated wells, HRP anti-M13 antibody, luminescence
Experimental: as §1, with “96-well black ELISA plates were coated with streptavidin (Rows A through D), hIgG (Rows E and F) and human serum albumin (Rows G and H), at a concentration of 5 micrograms/mL in PBS. Plates were incubated overnight at 4° C. Plates were washed 3 times with TBST using a plate washer. To the streptavidin-coated wells in rows C and D, 100 microliters of a 4 micrograms/mL solution of biotinylated-BMP-2 (R&D Systems, Minneapolis, Minn., Item number 355-BM/CF), was introduced and allowed to sit at room temperature for 30 minutes. To” for “To”

Binder	binding result [1]	binding result [2]	binding result (human serum albumin)	binding result [3]
AGRDSFNLSSSSPLPST [SEQ ID NO: 30]	no binding (tested: 1.00E+10 phage/well)			
B1		binds	no binding (tested: 10^9 phage/mL)	
B2			no binding (tested: 10^9 phage/mL)	
B3		binds	no binding (tested: 10^9 phage/mL)	
B4		binds	no binding (tested: 10^9 phage/mL)	
B5		binds	no binding (tested: 10^9 phage/mL)	
B6		binds	no binding (tested: 10^9 phage/mL)	
B7		binds	no binding (tested: 10^9 phage/mL)	
AGRDSFNLLTSSSSPST [SEQ ID NO: 31]	binds			
AGYTSFALSSSAESTLP [SEQ ID NO: 26]	no binding (tested: 1.00E+10 phage/well)			
B8		binds	no binding (tested: 10^9 phage/mL)	
B9		binds	no binding (tested: 10^9 phage/mL)	
B10		binds	no binding (tested: 10^9 phage/mL)	
B11		binds	no binding (tested: 10^9 phage/mL)	
B12		binds	no binding (tested: 10^9 phage/mL)	
B13		binds	no binding (tested: 10^9 phage/mL)	
B14		binds	no binding (tested: 10^9 phage/mL)	
B15		binds	no binding (tested: 10^9 phage/mL)	
B16		binds	no binding (tested: 10^9 phage/mL)	
B17		binds	no binding (tested: 10^9 phage/mL)	
AGRDSFNLLTSSPLSSS [SEQ ID NO: 32]	binds			
B18		binds	no binding (tested: 10^9 phage/mL)	
B19		binds	no binding (tested: 10^9 phage/mL)	
B20				binds
